Measured values from US20260242735A1 (UNIVERSIT T BASEL, published 2026).

Tests used:
Experiment in all cases: alanine scan, flow cytometry, HEK293-T;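 note: antibody binding to each alanine-substituted CD33 mutant expressed transiently in HEK293-T, read as fluorescence minus background, mean of duplicates, relative to wild-type CD33 set as 100%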
human CD33 P238A = human CD33 P238A (human, UniProt P20138 18-364)
human CD33 S186A = human CD33 S186A (human, UniProt P20138 18-364)
human CD33 G188A = human CD33 G188A (human, UniProt P20138 18-364)
human CD33 G188A, sequence (P20138 18-364 G188A limits assumed): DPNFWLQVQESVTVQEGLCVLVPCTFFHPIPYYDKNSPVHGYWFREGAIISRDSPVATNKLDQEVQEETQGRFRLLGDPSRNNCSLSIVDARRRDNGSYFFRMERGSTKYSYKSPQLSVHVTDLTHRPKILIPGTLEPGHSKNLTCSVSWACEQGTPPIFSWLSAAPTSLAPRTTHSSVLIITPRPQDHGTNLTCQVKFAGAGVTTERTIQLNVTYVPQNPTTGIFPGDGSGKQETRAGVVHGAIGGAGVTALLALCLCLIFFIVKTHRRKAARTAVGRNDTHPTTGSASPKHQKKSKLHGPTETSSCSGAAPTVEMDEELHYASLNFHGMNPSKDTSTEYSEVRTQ

human CD33 L210A = human CD33 L210A (human, UniProt P20138 18-364)
human CD33 L210A, sequence (P20138 18-364 L210A limits assumed): as the sequence (P20138 18-364 G188A limits assumed) above, with A171G, L193A counted along it

human CD33 F216A = human CD33 F216A (human, UniProt P20138 18-364)
human CD33 F216A, sequence (P20138 18-364 F216A limits assumed): as the sequence (P20138 18-364 G188A limits assumed) above, with A171G, F199A counted along it

human CD33 G220A = human CD33 G220A (human, UniProt P20138 18-364)
human CD33 G220A, sequence (P20138 18-364 G220A limits assumed): as the sequence (P20138 18-364 G188A limits assumed) above, with A171G, G203A counted along it

human CD33 I227A = human CD33 I227A (human, UniProt P20138 18-364)
human CD33 I227A, sequence (P20138 18-364 I227A limits assumed): as the sequence (P20138 18-364 G188A limits assumed) above, with A171G, I210A counted along it

human CD33 V196A = human CD33 V196A (human, UniProt P20138 18-364)
human CD33 V196A, sequence (P20138 18-364 V196A limits assumed): as the sequence (P20138 18-364 G188A limits assumed) above, with A171G, V179A counted along it

human CD33 G207A = human CD33 G207A (human, UniProt P20138 18-364)
human CD33 G207A, sequence (P20138 18-364 G207A limits assumed): as the sequence (P20138 18-364 G188A limits assumed) above, with A171G, G190A counted along it

human CD33 H193A = human CD33 H193A (human, UniProt P20138 18-364)
human CD33 H193A, sequence (P20138 18-364 H193A limits assumed): as the sequence (P20138 18-364 G188A limits assumed) above, with A171G, H176A counted along it

human CD33 T239A = human CD33 T239A (human, UniProt P20138 18-364)
human CD33 T239A, sequence (P20138 18-364 T239A limits assumed): as the sequence (P20138 18-364 G188A limits assumed) above, with A171G, T222A counted along it

human CD33 Y233A = human CD33 Y233A (human, UniProt P20138 18-364)
human CD33 Y233A, sequence (P20138 18-364 Y233A limits assumed): as the sequence (P20138 18-364 G188A limits assumed) above, with A171G, Y216A counted along it

human CD33 T232A = human CD33 T232A (human, UniProt P20138 18-364)
human CD33 T232A, sequence (P20138 18-364 T232A limits assumed): as the sequence (P20138 18-364 G188A limits assumed) above, with A171G, T215A counted along it

human CD33 R190A = human CD33 R190A (human, UniProt P20138 18-364)
human CD33 R190A, sequence (P20138 18-364 R190A limits assumed): as the sequence (P20138 18-364 G188A limits assumed) above, with A171G, R173A counted along it

human CD33 T173A = human CD33 T173A (human, UniProt P20138 18-364)
human CD33 T173A, sequence (P20138 18-364 T173A limits assumed): as the sequence (P20138 18-364 G188A limits assumed) above, with T156A, A171G counted along it

human CD33 E252A = human CD33 E252A (human, UniProt P20138 18-364)
human CD33 F243A = human CD33 F243A (human, UniProt P20138 18-364)
human CD33 K309A = human CD33 K309A (human, UniProt P20138 18-364)
human CD33 D246A = human CD33 D246A (human, UniProt P20138 18-364)
human CD33 A255S = human CD33 A255S (human, UniProt P20138 18-364)
human CD33 T303A = human CD33 T303A (human, UniProt P20138 18-364)
human CD33 L271A = human CD33 L271A (human, UniProt P20138 18-364)
human CD33 T299A = human CD33 T299A (human, UniProt P20138 18-364)
human CD33 V258A = human CD33 V258A (human, UniProt P20138 18-364)
human CD33 T268A = human CD33 T268A (human, UniProt P20138 18-364)
human CD33 D298A = human CD33 D298A (human, UniProt P20138 18-364)
human CD33 S314A = human CD33 S314A (human, UniProt P20138 18-364)
human CD33 G249A = human CD33 G249A (human, UniProt P20138 18-364)
human CD33 P308A = human CD33 P308A (human, UniProt P20138 18-364)
human CD33 F279A = human CD33 F279A (human, UniProt P20138 18-364)
human CD33 C276A = human CD33 C276A (human, UniProt P20138 18-364)
human CD33 P301A = human CD33 P301A (human, UniProt P20138 18-364)
human CD33 R291A = human CD33 R291A (human, UniProt P20138 18-364)
human CD33 I262A = human CD33 I262A (human, UniProt P20138 18-364)
human CD33 V294A = human CD33 V294A (human, UniProt P20138 18-364)
human CD33 L277A = human CD33 L277A (human, UniProt P20138 18-364)

human CD33 S186A, sequence (P20138 18-364 S186A limits assumed): as the sequence (P20138 18-364 G188A limits assumed) above, with S169A, A171G counted along it

B1: Refmab #3 (antibody, V domains shown)
VH: QVQLVQSGAEVKKPGSSVKVSCKASGYTFTDYNMHWVRQAPGQGLEWIGYIYPYNGGTGYNQKFKSKATITADESTNTAYMELSSLRSEDTAVYYCARGRPAMDYWGQGTLVTVSS
VL: DIQMTQSPSSLSASVGDRVTITCRASESVDNYGISFMNWFQQKPGKAPKLLIYAASNQGSGVPSRFSGSGSGTDFTLTISSLQPDDFATYYCQQSKEVPWTFGQGTKVEIK
notes: In the alanine scan antibodies were used as IgG or Fab
Human CD33 P238A
  Mean % WT Binding: 122%
Human CD33 S186A
  Mean % WT Binding: 106%
Human CD33 G188A
  Mean % WT Binding: 85.1%
Human CD33 L210A
  Mean % WT Binding: 84%
Human CD33 F216A
  Mean % WT Binding: 152%
Human CD33 G220A
  Mean % WT Binding: 114%
Human CD33 I227A
  Mean % WT Binding: 127%
Human CD33 V196A
  Mean % WT Binding: 105%
Human CD33 G207A
  Mean % WT Binding: 105%
Human CD33 H193A
  Mean % WT Binding: 92%
Human CD33 T239A
  Mean % WT Binding: 105%
Human CD33 Y233A
  Mean % WT Binding: 146%
Human CD33 T232A
  Mean % WT Binding: 127%
Human CD33 R190A
  Mean % WT Binding: 124%
Human CD33 T173A
  Mean % WT Binding: 97%

B2: Refmab #2 (antibody, V domains shown)
VH: QVQLVQSGAEVKKPGSSVKVSCKASGGTFSDYAISWVRQAPGQGLEWMGRIIPILGVADYAQKFQGRVTITADKSTRTAYMELSSLRSEDTAVYYCARNWADAFDIWGQGTMVTVSS
VL: DIQLTQSPSSLSASVGDRVTITCRASQGISSVLAWYQQKPGKAPKLLIYDASSLESGVPSRFSGSGSGTDFTLTISSLQPEDFATYYCQQFDSSITFGQGTKLEIK
notes: as for B1
Human CD33 P238A
  Mean % WT Binding: 119%
Human CD33 S186A
  Mean % WT Binding: 120%
Human CD33 G188A
  Mean % WT Binding: 130%
Human CD33 L210A
  Mean % WT Binding: 98.2%
Human CD33 F216A
  Mean % WT Binding: 101%
Human CD33 G220A
  Mean % WT Binding: 132%
Human CD33 I227A
  Mean % WT Binding: 110%
Human CD33 V196A
  Mean % WT Binding: 106%
Human CD33 G207A
  Mean % WT Binding: 109%
Human CD33 H193A
  Mean % WT Binding: 122%
Human CD33 T239A
  Mean % WT Binding: 111%
Human CD33 Y233A
  Mean % WT Binding: 107%
Human CD33 T232A
  Mean % WT Binding: 84.8%
Human CD33 R190A
  Mean % WT Binding: 114%
Human CD33 T173A
  Mean % WT Binding: 134%

B3: Refmab #1 (antibody, V domains shown)
VH: EVQLVQSGAEVKKPGSSVKVSCKASGYTITDSNIHWVRQAPGQSLEWIGYIYPYNGGTDYNQKFKNRATLTVDNPTNTAYMELSSLRSEDTAFYYCVNGNPWLAYWGQGTLVTVSS
VL: DIQLTQSPSTLSASVGDRVTITCRASESLDNYGIRFLTWFQQKPGKAPKLLMYAASNQGSGVPSRFSGSGSGTEFTLTISSLQPDDFATYYCQQTKEVPWSFGQGTKVEVK
notes: In the alanine scan antibodies were used as IgG or Fab; also called hP67.6
Human CD33 P238A
  Mean % WT Binding: 101%
Human CD33 S186A
  Mean % WT Binding: 92.5%
Human CD33 G188A
  Mean % WT Binding: 102%
Human CD33 L210A
  Mean % WT Binding: 93%
Human CD33 F216A
  Mean % WT Binding: 87.3%
Human CD33 G220A
  Mean % WT Binding: 104%
Human CD33 I227A
  Mean % WT Binding: 86.7%
Human CD33 V196A
  Mean % WT Binding: 83.9%
Human CD33 G207A
  Mean % WT Binding: 94.1%
Human CD33 H193A
  Mean % WT Binding: 99.9%
Human CD33 T239A
  Mean % WT Binding: 79.7%
Human CD33 Y233A
  Mean % WT Binding: 115%
Human CD33 T232A
  Mean % WT Binding: 76.6%
Human CD33 R190A
  Mean % WT Binding: 96.6%
Human CD33 T173A
  Mean % WT Binding: 106%

B4: Refmab #1 (antibody, V domains shown)
VH: EVQLVQSGAEVKKPGSSVKVSCKASGYTITDSNIHWVRQAPGQSLEWIGYIYPYNGGTDYNQKFKNRATLTVDNPTNTAYMELSSLRSEDTAFYYCVNGNPWLAYWGQGTLVTVSS
VL: DIQLTQSPSTLSASVGDRVTITCRASESLDNYGIRFLTWFQQKPGKAPKLLMYAASNQGSGVPSRFSGSGSGTEFTLTISSLQPDDFATYYCQQTKEVPWSFGQGTKVEVK
notes: The alanine scan used IgG or Fab; also called hP67.6
Human CD33 E252A
  Mean % WT Binding: 98.8 % WT binding
Human CD33 F243A
  Mean % WT Binding: 86.5 % WT binding
Human CD33 K309A
  Mean % WT Binding: 92.7 % WT binding
Human CD33 D246A
  Mean % WT Binding: 85.2 % WT binding
Human CD33 A255S
  Mean % WT Binding: 98.8 % WT binding
Human CD33 T303A
  Mean % WT Binding: 94 % WT binding
Human CD33 L271A
  Mean % WT Binding: 100 % WT binding
Human CD33 T299A
  Mean % WT Binding: 90.3 % WT binding
Human CD33 V258A
  Mean % WT Binding: 99.8 % WT binding
Human CD33 T268A
  Mean % WT Binding: 102 % WT binding
Human CD33 D298A
  Mean % WT Binding: 97.8 % WT binding
Human CD33 S314A
  Mean % WT Binding: 96.2 % WT binding
Human CD33 G249A
  Mean % WT Binding: 89.2 % WT binding
Human CD33 P308A
  Mean % WT Binding: 94.3 % WT binding
Human CD33 F279A
  Mean % WT Binding: 104 % WT binding
Human CD33 C276A
  Mean % WT Binding: 83.4 % WT binding
Human CD33 P301A
  Mean % WT Binding: 101 % WT binding
Human CD33 R291A
  Mean % WT Binding: 97.8 % WT binding
Human CD33 I262A
  Mean % WT Binding: 89.7 % WT binding
Human CD33 V294A
  Mean % WT Binding: 91.7 % WT binding
Human CD33 L277A
  Mean % WT Binding: 85.5 % WT binding

B5: Refmab #4 (antibody, V domains shown)
VH: QVQLVQSGAEVKKPGESVKVSCKASGYTFTNYGMNWVKQAPGQGLEWMGWINTYTGEPTYADKFQGRVTMTTDTSTSTAYMEIRNLGGDDTAVYYCARWSWSDGYYVYFDYWGQGTSVTVSS
VL: DIVMTQSPDSLTVSLGERTTINCKSSQSVLDSSTNKNSLAWYQQKPGQPPKLLLSWASTRESGIPDRFSGSGSGTDFTLTIDSPQPEDSATYYCQQSAHFPITFGQGTRLEIK
notes: as for B1
Human CD33 P238A
  Mean % WT Binding: 117%
Human CD33 S186A
  Mean % WT Binding: 121%
Human CD33 G188A
  Mean % WT Binding: 91.3%
Human CD33 L210A
  Mean % WT Binding: 92.3%
Human CD33 F216A
  Mean % WT Binding: 71.6%
Human CD33 G220A
  Mean % WT Binding: 115%
Human CD33 I227A
  Mean % WT Binding: 78.7%
Human CD33 V196A
  Mean % WT Binding: 102%
Human CD33 G207A
  Mean % WT Binding: 87.1%
Human CD33 H193A
  Mean % WT Binding: 103%
Human CD33 T239A
  Mean % WT Binding: 102%
Human CD33 Y233A
  Mean % WT Binding: 98.5%
Human CD33 T232A
  Mean % WT Binding: 57.4%
Human CD33 R190A
  Mean % WT Binding: 109%
Human CD33 T173A
  Mean % WT Binding: 119%
